Results taken from article PMC12514197, “LARGE1 processively polymerizes length-controlled matriglycan on prodystroglycan” (Nature Communications, 2025).

Assays:
[1] = biological target: T1, prodystroglycan (DAG1_(28-340)) (Homo sapiens, UniProt Q14118 28-340, R311A | R312A); test: MST
T1 sequence: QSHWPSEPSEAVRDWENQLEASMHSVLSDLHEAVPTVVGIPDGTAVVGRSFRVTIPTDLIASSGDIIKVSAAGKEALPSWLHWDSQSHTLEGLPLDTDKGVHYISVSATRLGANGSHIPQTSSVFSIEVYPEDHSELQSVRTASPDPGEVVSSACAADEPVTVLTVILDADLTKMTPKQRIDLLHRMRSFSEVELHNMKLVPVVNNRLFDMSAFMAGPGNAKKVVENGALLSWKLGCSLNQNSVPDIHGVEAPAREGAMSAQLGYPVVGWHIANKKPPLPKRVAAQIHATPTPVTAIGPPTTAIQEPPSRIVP

[2] = biological target: the molecule itself; test: SEC-MALS; Superdex 200 Increase 10/300 GL, 20 mM HEPES pH 7.4, 150 mM NaCl, samples 4-8 mg/mL, on line with SAXS

B1: LARGE1dTM (enzyme)
chain: FEDGKPVSLSPLESQAHSPRYTASSQRERESLEVRMREVEEENRALRRQLSLAQGRAPSHRRGNHSKTYSMEEGTGDSENLRAGIVAGNSSECGQQPVVEKCETIHVAIVCAGYNASRDVVTLVKSVLFHRRNPLHFHLIADSIAEQILATLFQTWMVPAVRVDFYNADELKSEVSWIPNKHYSGIYGLMKLVLTKTLPANLERVIVLDTDITFATDIAELWAVFHKFKGQQVLGLVENQSDWYLGNLWKNHRPWPALGRGYNTGVILLLLDKLRKMKWEQMWRLTAERELMGMLSTSLADQDIFNAVIKQNPFLVYQLPCFWNVQLSDHTRSEQCYRDVSDLKVIHWNSPKKLRVKNKHVEFFRNLYLTFLEYDGNLLRRELFGCPSEADVNSENLQKQLSELDEDDLCYEFRRERFTVHRTHLYFLHYEYEPAADSTDVTLVAQLSMDRLQMLEAICKHWEGPISLALYLSDAEAQQFLRYAQGSEVLMSRHNVGYHIVYKEGQFYPVNLLRNVAMKHISTPYMFLSDIDFLPMYGLYEYLRKSVIQLDLANTKKAMIVPAFETLRYRLSFPKSKAELLSMLDMGTLFTFRYHVWTKGHAPTNFAKWRTATTPYRVEWEADFEPYVVVRRDCPEYDRRFVGFGWNKVAHIMELDVQEYEFIVLPNAYMIHMPHAPSFDITKFRSNKQYRICLKTLKEEFQQDMSRRYGFAALKYLTAENNS
modifications: N-glycans; NHS-red label in the microscale thermophoresis experiments
notes: LARGE1 lacking the transmembrane domain; soluble secreted construct; Homodimer by cryo-EM and SEC-MALS; also called Like-acetylglucosaminyltransferase-1; apo-LARGE1dTM; source: HEK293-F, stably transfected, secreted, purified (TALON resin)
Q: What does the source list for B1?
A: Kd [1]: ~180 nM; stoichiometry N [2]: 2
